Test results taken from patent US20240124575A1 (SIMCERE ZAIMING PHARMACEUTICAL, published 2024).
Like-named read-outs stand apart in the source and are kept apart here.

B1: C33B904 hIgG1 (antibody, V domains shown)
VH: EVQLVESGGGLVQPGRSLRLSCAASGFTFDDYAMHWVRQAPGKGLEWVSGIGWSGGSIVYADSVKGRFTISRDNAKNSLYLQMNSLRAEDTALYYCAKDSPYGDFFDYWGQGTLVTVSS
VL: DIVMTQSPDSLAVSLGERATINCKSSQTVFYSSNNKNYLAWYQQKPGQPPKLLISWASTRKSGVPDRFSGSGSGTDFTLTVSSLQAEDVAVYYCQHYYSTPYTFGQGTKLEIKR
notes: intact human IgG1; variable regions from US20190382481A1; also called C33B3904; C331B904
B2: C33B904 (antibody, human IgG1, kappa, V domains shown)
VH: B1 VH
VL: B1 VL
notes: control antibody, intact human IgG1 form; variable regions from US20190382481A1; also called C33B904 hIgG1; C331B904

Key:
[1] = biological target: T1, monkey CD33-His protein (monkey); assay: ELISA on coated monkey CD33-his
T1 construct: also called monkey CD33 protein

[2] = biological target: T2, human CD33-His (extracellular domain Asp 18-His 259) (human, UniProt P20138 18-259); assay: competitive ELISA vs coated S006-NB146-16 3ug/mL; soluble 25ug/ml
T2 construct: range 18-259; bought protein; also called hCD33-his; human CD33 protein; not shown: His tag
T2 sequence (P20138 18-259 limits assumed): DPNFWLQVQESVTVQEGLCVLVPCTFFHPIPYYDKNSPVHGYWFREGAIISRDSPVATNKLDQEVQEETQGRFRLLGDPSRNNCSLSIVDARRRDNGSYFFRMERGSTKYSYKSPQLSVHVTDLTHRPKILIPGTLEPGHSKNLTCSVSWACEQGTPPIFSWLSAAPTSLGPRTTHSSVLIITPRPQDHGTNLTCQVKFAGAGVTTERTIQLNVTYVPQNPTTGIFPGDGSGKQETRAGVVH

[3] = biological target: T1, monkey CD33-His protein; assay: ELISA on coated monkey CD33-his; remark: listed apart in the source
[4] = biological target: T2, human CD33-His (extracellular domain …); assay: competitive ELISA vs coated S006-NB146-40 2ug/mL; soluble 25ug/ml
Protocol: (§1) VHH antibodies and control antibodies with known epitopes were subjected to epitope classification with competitive ELISA. ELISA plates were coated with 2 μg/mL antibodies according to the method in Example 5.1; the human CD33-his protein was subjected to a gradient dilution from 30 μg/mL, and EC80 values (Tables 26-27) were calculated. ELISA plates were coated with 2 μg/mL antibodies; after 25 µg/mL of antibodies to be tested were added, a human CD33-his protein having an EC80 concentration corresponding to each of the antibodies to be tested was then added for incubation for 2 h. The plates were washed 5 times with PBS, then HRP-labeled anti-His antibodies (purchased from GenScript, Cat. No. A00612) were added for incubation for 1 h, and the plates were washed 5 times. A TMB substrate was added at 50 μL/well and incubated at room temperature for 10 min, then a stop solution (1.0 M HCl) was added at 50 μL/well. OD_{450 nm} values were read using an ELISA plate reader (Insight, purchased from PerkinElmer), and the competition rate between the antibodies was calculated according to the OD_{450 nm} values using a formula. The results are shown in FIGS. 12A-12B, the higher the value of the competition rate, the closer the epitopes to which two antibodies bind.

[5] = biological target: T2, human CD33-His (extracellular domain …); assay: competitive ELISA vs coated S006-NB146-17 2ug/mL; soluble 25ug/ml
Protocol: as §1

[6] = biological target: T3, human CD33-C2-his (human, UniProt P20138 136-260); assay: ELISA on coated human CD33-C2-his
T3 construct: expressed in HEK293E; also called hCD33-C2-his; human CD33 protein C2-domain; not shown: His tag
T3 sequence (P20138 other isoform, or with tags, fused parts or gaps limits assumed): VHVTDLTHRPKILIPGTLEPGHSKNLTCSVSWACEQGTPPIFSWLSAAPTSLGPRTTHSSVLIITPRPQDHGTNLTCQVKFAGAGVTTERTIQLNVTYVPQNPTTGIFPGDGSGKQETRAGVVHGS
Source text: Plates were coated with human CD33-V-his (membrane distal end) and human CD33-C2-his (membrane proximal end), respectively, according to the ELISA method in Example 8. The VHH humanized antibodies were classified based on the membrane distal end and the membrane proximal end, as shown in FIGS. 20A-20J and Table 44, which allowed the classification of the VHH humanized antibodies into the following classes: […]

[7] = biological target: T4, human CD33-his protein (human, UniProt P20138 18-259); assay: competition ELISA, coated human CD33-his, vs Biotin-C33B904 at EC80; antibody 0 nM (no competitor)
T4 construct: range 18-259; bought protein; also called hCD33-his; recombinant human CD33-his; not shown: His tag
T4 sequence (P20138 18-259 limits assumed): as the sequence (P20138 18-259 limits assumed) above
Protocol: (§2) ELISA plates were coated with 2 μg/mL human CD33-his protein according to the method in Example 5.1; the Biotin-C331B904 antibody was subjected to a gradient dilution from 15 μg/mL, and EC80 values (0.18 μg/mL) were calculated. ELISA plates were coated with 2 μg/mL human CD33-his protein; starting from 40 μg/mL, the VHH antibodies to be tested were diluted in a 1:2 dilution ratio to obtain seven concentrations and added to the ELISA plates, and then Biotin-C331904 antibodies with the EC80 concentrations were added for incubation for 2 h. The plates were washed 5 times with PBS and then […] (purchased from Sigma, Cat. No. S2438) were added for incubation for 1 h, and the plates were washed 5 times. A TMB substrate was added at 50 μL/well and incubated at room temperature for 10 min, then a stop solution (1.0 M HCl) was added at 50 μL/well. OD_{450 nm} values were read using an ELISA plate reader (Insight, purchased from PerkinElmer). Then, analysis was performed by software (GraphPad Prism8), and data were fitted for curve plotting. The results are shown in FIGS. 13A-13B and Tables 28 and 29.

[8] = biological target: T4, human CD33-his protein; assay: as above; remark: listed apart in the source
Protocol: as §2

[9] = biological target: T4, human CD33-his protein; assay: competition ELISA, coated human CD33-his, vs Biotin-C33B904 at EC80; antibody 15.63 nM
Protocol: (§3) The plate was sealed with a plastic film and incubated at 4° C. overnight, washed twice with PBS the next day, and a blocking solution [PBS+2% (w/w) BSA] was added for blocking at room temperature for 2 h. The blocking solution was discarded, and VHH-Fc antibody or negative control antibody serially diluted from 100 nM was added at 50 μL/well. After incubation at 37° C. for 2 h, the plate was washed 3 times with PBS. A secondary antibody labeled with HRP (horseradish peroxidase) (purchased from Sigma, Cat. No. A0170) was added. After incubation for 1 h at 37° C., the plate was washed 5 times with PBS. A TMB substrate was added at 50 μL/well. After incubation at room temperature for 10 min, a stop solution (1.0 N HCl) was added at 50 μL/well. The OD450 nm values were read on an ELISA plate reader (Multimode Plate Reader, EnSight, purchased from Perkin Elmer). The assay results for the binding of the VHH-Fc to hCD33-his by ELISA are shown in FIGS. 7A and 7B and Tables 11 and 12. […] The IgG control was hIgG1, and the data in the table are OD450 nm values.
(§4) ELISA plates were coated with 2 μg/mL human CD33-his protein according to the method in Example 5.1; the Biotin-C331B904 antibody was subjected to a gradient dilution from 15 μg/mL, and EC80 values (0.18 μg/mL) were calculated. […] OD_{450 nm} values were read using an ELISA plate reader (Insight, purchased from PerkinElmer). […]

[10] = biological target: T4, human CD33-his protein; assay: competition ELISA, coated human CD33-his, vs Biotin-C33B904 at EC80; antibody 125.00 nM
Protocol: as §2

[11] = biological target: T4, human CD33-his protein; assay: competition ELISA, coated human CD33-his, vs Biotin-C33B904 at EC80; antibody 0.98 nM
Protocol: as §3, §4

Binder	EC50 (read off the curve) [1] [nM]	inhibition rate [2] [%]	EC50 (read off the curve) [3] [nM]	inhibition rate [4] [%]	inhibition rate [5] [%]	EC50 (read off the curve) [6] [nM]	OD450 (Biotin-C33B904 signal) [7]	OD450 (Biotin-C33B904 signal) [8]	OD450 (Biotin-C33B904 signal) [9]	OD450 (Biotin-C33B904 signal) [10]	OD450 (Biotin-C33B904 signal) [11]
B1	~0.1	100	~0.2	-5	1	~0.2					
B2							2.35	2.33	0.88	0.13	2.31
